Measured values taken from patent US20150111821A1.

Molecular target: FGF receptors
Test: cell-based or functional assay

FGFR signaling (phosphorylation of downstream ERK and AKT pathways, Western blot, HEK293 cells): 100 fold
Substance: FGF1^ΔNT (10-140αα) (SEQ ID NO: 7), N-terminally truncated FGF1 (from UniProt P05230 25-155) (ligand; the values are: fold reduction in signaling)
